The results in this text go back to patent EP4039268A1 (IMBA-Institut für Molekulare Biotechnologie GmbH, dated 2022).

The labels stand for the following.
B1: Pla2r1_1 CRD-mouse IgG2a-Fc fusion protein (Fc fusion)
chain: SSRICYQFNLLSSLSWNQAHSSCLMQGGALLSIADEDEEDFIRKHLSKVVKEVWIGLNQLDEKAGWQWSDGTPLSYLNWSQEITPGPFVEHHCGTLEVVSAAWRSRDCESTLPYICKGGGSGGGSGGGS
B2: Mrc2_8 CRD-mouse IgG2a-Fc fusion protein (Fc fusion)
chain: FREHCYSFHMEVLLGHKEALQRCQKAGGTVLSILDEMENVFVWEHLQTAEAQSRGAWLGMNFNPKGGTLVWQDNTAVNYSNWGPPGLGPSMLSHNSCYWIQSSSGLWRPGACTNITMGVVCGGGSGGGSGGGS
B3: Reg1 CRD-mouse IgG2a-Fc fusion protein (Fc fusion)
chain: ISCPEGSNAYSSYCYYFTEDRLTWADADLFCQNMNSGYLVSVLSQAEGNFVASLIKESGTTDANVWTGLHDPKRNRRWHWSSGSLFLYKSWATGSPNSSNRGYCVSLTSNTGYKKWKDDNCDAQYSFVCKFGGGSGGGSGGGS
B4: Ly75_3 CRD-mouse IgG2a-Fc fusion protein (Fc fusion)
chain: KDAESDKLCPPDEGWKRHGETCYKIYEKEAPFGTNCNLTITSRFEQEFLNYMMKNYDKSLRKYFWTGLRDPDSRGEYSWAVAQGVKQAVTFSNWNFLEPASPGGCVAMSTGKTLGKWEVKNCRSFRALSICKKGGGSGGGSGGGS
B5: Mrc1_5 CRD-mouse IgG2a-Fc fusion protein (Fc fusion)
chain: YKDYQYYFSKEKETMDNARAFCKKNFGDLATIKSESEKKFLWKYINKNGGQSPYFIGMLISMDKKFIWMDGSKVDFVAWATGEPNFANDDENCVTMYTNSGFWNDINCGYPNNFICQGGGSGGGSGGGS
B6: Ly75_4 CRD-mouse IgG2a-Fc fusion protein (Fc fusion)
chain: SSLSCYKVFHIERIVRKRNWEEAERFCQALGAHLPSFSRREEIKDFVHLLKDQFSGQRWLWIGLNKRSPDLQGSWQWSDRTPVSAVMMEPEFQQDFDIRDCAAIKVLDVPWRRVWHLYEDKDYAYWKPFACDAKLEWVCQGGGSGGGSGGGS
B7: Mrc1_6 CRD-mouse IgG2a-Fc fusion protein (Fc fusion)
chain: YKNKCFKIFGFANEEKKSWQDARQACKGLKGNLVSIENAQEQAFVTYHMRDSTFNAWTGLNDINAEHMFLWTAGQGVHYTNWGKGYPGGRRSSLSYEDADCVVVIGGNSREAGTWMDDTCDSKQGYICQGGGSGGGSGGGS
B8: Pla2r1_8 CRD-mouse IgG2a-Fc fusion protein (Fc fusion)
chain: FKGNCYSFSTVLDSRSFEDAHEFCKSEGSNLLAIRDAAENSFLLEELLAFGSSVQMVWLNAQFDNNNKTLRWFDGTPTEQSNWGLRKPDMDHLKPHPCVVLRIPEGIWHFTPCEDKKGFICKGGGSGGGSGGGS
B9: Ly75_7 CRD-mouse IgG2a-Fc fusion protein (Fc fusion)
chain: YLNNLYKIISKPLTWHGALKECMKEKMRLVSITDPYQQAFLAVQATLRNSSFWIGLSSQDDELNFGWSDGKRLQFSNWAGSNEQLDDCVILDTDGFWKTADCDDNQPGAICYYGGGSGGGSGGGS
B10: Reg3b CRD-mouse IgG2a-Fc fusion protein (Fc fusion)
chain: YGSYCYALFQIPQTWFDAELACQKRPGGHLVSVLNSAEASFLSSMVKRTGNSYQYTWIGLHDPTLGAEPNGGGWEWSNNDVMNYFNWERNPSTALDRAFCGSLSRASGFLKWRDMTCEVKLPYVCKGGGSGGGSGGGS
B11: Pla2r1_2 CRD-mouse IgG2a-Fc fusion protein (Fc fusion)
chain: FNRKCYKLKKDRKSWLGALHSCQSNDSVLMDVASLAEVEFLVSLLRDENASETWIGLSSNKIPVSFEWSSGSSVIFTNWYPLEPRILPNRRQLCVSAEESDGRWKVKDCKERLFYICKGGGSGGGSGGGS
B12: Mrc1_7 CRD-mouse IgG2a-Fc fusion protein (Fc fusion)
chain: YGKSSYSLMKLKLPWHEAETYCKDHTSLLASILDPYSNAFAWMKMHPFNVPIWIALNSNLTNNEYTWTDRWRVRYTNWGADEPKLKSACVYMDVDGYWRTSYCNESFYFLCKGGGSGGGSGGGS
B13: Cd209e CRD-mouse IgG2a-Fc fusion protein (Fc fusion)
chain: FFNGNCYFFSKSQRDWHDSMTACKEMGAQLVIIKSHEEQSFLQQTSKKNSYTWMGLSDLNKEGEWYWLDGSPLSDSFEKYWKKGQPNNVGGQDCVEFRDNGWNDAKCEQRKFWICKGGGSGGGSGGGS
B14: Sell CRD-mouse IgG2a-Fc fusion protein (Fc fusion)
chain: WTYHYSEKPMNWENARKFCKQNYTDLVAIQNKREIEYLENTLPKSPYYYWIGIRKIGKMWTWVGTNKTLTKEAENWGAGEPNNKKSKEDCVEIYIKRERDSGKWNDDACHKRKAALCGGGSGGGSGGGS
B15: Pkd1l2 CRD-mouse IgG2a-Fc fusion protein (Fc fusion)
chain: not shown
B16: Mrc2_5 CRD-mouse IgG2a-Fc fusion protein (Fc fusion)
chain: FQEAEYKFFEHHSSWAQAQRICTWFQADLTSVHSQAELDFLGQNLQKLSSDQEQHWWIGLHTLESDGRFRWTDGSIINFISWAPGKPRPIGKDKKCVYMTARQEDWGDQRCHTALPYICKGGGSGGGSGGGS
B17: Mrc1_8 CRD-mouse IgG2a-Fc fusion protein (Fc fusion)
chain: FYGHCYYFESSFTRSWGQASLECLRMGASLVSIETAAESSFLSYRVEPLKSKTNFWIGMFRNVEGKWLWLNDNPVSFVNWKTGDPSGERNDCVVLASSSGLWNNIHCSSYKGFICKGGGSGGGSGGGS
B18: Mrc1_3 CRD-mouse IgG2a-Fc fusion protein (Fc fusion)
chain: HGFYCYLIGSTLSTFTDANHTCTNEKAYLTTVEDRYEQAFLTSLVGLRPEKYFWTGLSDVQNKGTFRWTVDEQVQFTHWNADMPGRKAGCVAMKTGVAGGLWDVLSCEEKAKFVCKGGGSGGGSGGGS
B19: Pkd1 CRD-mouse IgG2a-Fc fusion protein (Fc fusion)
chain: GNGHCYRLVAEKAPWLQAQEQCRTWAGAALAMVDSPAIQHFLVSKVTRSLDVWIGFSSVEGTEGLDPRGEAFSLESCQNWLPGEPHPATAEHCVRLGPAGQCNTDLCSAPHSYVCEGGGSGGGSGGGS
B20: Reg3g CRD-mouse IgG2a-Fc fusion protein (Fc fusion)
chain: YGSYCYALFSVSKNWYDADMACQKRPSGHLVSVLSGAEASFLSSMIKSSGNSGQYVWIGLHDPTLGYEPNRGGWEWSNADVMNYINWETNPSSSSGNHCGTLSRASGFLKWRENYCNLELPYVCKGGGSGGGSGGGS
B21: Mrc2_6 CRD-mouse IgG2a-Fc fusion protein (Fc fusion)
chain: FLNKCFRIQGQDPQDRVKWSEAQFSCEQQEAQLVTIANPLEQAFITASLPNVTFDLWIGLHASQRDFQWIEQEPLLYTNWAPGEPSGPSPAPSGTKPTSCAVILHSPSAHFTGRWDDRSCTEETHGFICGGGSGGGSGGGS
B22: Reg3a CRD-mouse IgG2a-Fc fusion protein (Fc fusion)
chain: YRSHCYALVMTPKSWFQADLVCQKRPSGHLVSILSGGEASFVSSLVNGRVDNYQDIWIGLHDPTMGQQPNGGGWEWSNSDVLNYLNWDGDPSSTVNRGHCGSLTASSGFLKWGDYYCDGTLPFVCKGGGSGGGSGGGS
B23: Reg2 CRD-mouse IgG2a-Fc fusion protein (Fc fusion)
chain: INCPEGANAYGSYCYYLIEDRLTWGEADLFCQNMNAGHLVSILSQAESNFVASLVKESGTTASNVWTGLHDPKSNRRWHWSSGSLFLFKSWATGAPSTANRGYCVSLTSNTAYKKWKDENCEAQYSFVCKFGGGSGGGSGGGS
B24: Ly75_9 CRD-mouse IgG2a-Fc fusion protein (Fc fusion)
chain: YKDGVYSVIQKKVTWYEALNACSQSGGELASVHNPNGKLFLEDIVNRDGFPLWVGLSSHDGSESSFEWSDGRAFDYVPWQSLQSPGDCVVLYPKGIWRREKCLSVKDGAICYKGGGSGGGSGGGS

T3 sequence (Q9BYF1 18-740 limits assumed): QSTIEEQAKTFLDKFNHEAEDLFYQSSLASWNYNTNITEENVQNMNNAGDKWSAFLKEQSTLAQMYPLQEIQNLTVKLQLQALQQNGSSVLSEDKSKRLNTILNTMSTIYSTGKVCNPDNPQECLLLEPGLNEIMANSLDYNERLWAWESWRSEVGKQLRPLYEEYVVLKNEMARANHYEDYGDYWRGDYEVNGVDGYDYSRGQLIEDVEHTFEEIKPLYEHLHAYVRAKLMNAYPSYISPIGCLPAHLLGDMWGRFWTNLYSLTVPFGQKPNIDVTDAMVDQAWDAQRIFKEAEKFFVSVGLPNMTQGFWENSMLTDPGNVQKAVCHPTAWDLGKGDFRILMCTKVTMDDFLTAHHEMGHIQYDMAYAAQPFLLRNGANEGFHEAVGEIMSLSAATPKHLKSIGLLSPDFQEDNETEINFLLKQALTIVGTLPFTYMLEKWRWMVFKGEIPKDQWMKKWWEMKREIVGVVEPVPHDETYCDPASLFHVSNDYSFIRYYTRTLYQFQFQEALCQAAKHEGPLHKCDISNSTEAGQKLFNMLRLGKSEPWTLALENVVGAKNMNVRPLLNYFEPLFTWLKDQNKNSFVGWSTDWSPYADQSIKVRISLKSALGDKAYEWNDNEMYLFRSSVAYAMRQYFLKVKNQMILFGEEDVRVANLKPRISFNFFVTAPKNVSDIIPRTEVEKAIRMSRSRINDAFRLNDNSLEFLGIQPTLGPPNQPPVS

The target in one test is T1, full-length trimeric SARS-CoV-2 Spike protein (Spike-H6) (SARS-CoV-2, N-glycosylated (22 N-glycosylation sites)).
T1 construct: also called trimeric Spike; full-length Spike-H6
Briefly: ELISA screen.
With B1, the “Mean normalized OD” value came out at 0 OD.
On the same count and under the same terms, then B2, with 0 OD; and B3, with 1.55 OD.
B4: the “Mean normalized OD” value came to 0.002 OD.
In the case of B5, the “Mean normalized OD” value is -0.001 OD.
Same read-out and setting: for B6 the value was -0.014 OD; for B7, 0.004 OD; for B8, -0.002 OD.
On to B9, for which the “Mean normalized OD” value turned out to be 0.001 OD.
The same measure, in the same setting: for B10 the value was 0.005 OD.
As for B11, the “Mean normalized OD” value was 0.001 OD.
In the case of B12, the “Mean normalized OD” value is -0.002 OD.
Turning to B13, the “Mean normalized OD” value amounted to 0.045 OD.
Consider B14, for which the “Mean normalized OD” value was -0.016 OD.
The same measure, in the same setting: for B15 the value was 0.001 OD; for B16, -0.002 OD.
The same measure, in the same setting: then B17, with -0.057 OD.
B18: the “Mean normalized OD” value stood at 0.037 OD.
For the molecule B19, the “Mean normalized OD” value was 0 OD.
The same measure, in the same setting: then B20, with -0.009 OD; and B21, with 0.011 OD.
Turning to B22, the “Mean normalized OD” value came to 0.006 OD.
On to B23, for which the “Mean normalized OD” value worked out at 0.056 OD.
Same read-out and setting: then B24, with 0.001 OD.

For another test, the target named is T2, monomeric SARS-CoV-2 receptor binding domain (RBD-H6) (SARS-CoV-2, UniProt P0DTC2 319-541).
T2 construct: Made in HEK293-6E cells; also called RBD Spike; monomeric RBD
Briefly: ELISA screen. In general terms: In an ELISA, binding on a coated surface is turned into a signal by an enzyme label.
With B1, the “Mean normalized OD” value stood at 0 OD.
Still for that read-out and setting: for B2 the value was 0.003 OD.
On the same count and under the same terms, then B3, with 0.009 OD.
As for B4, the “Mean normalized OD” value turned out to be 0.001 OD.
Regarding B5, the “Mean normalized OD” value was 0 OD.
Same read-out and setting: then B6, with 0.007 OD; and B7, with 0.004 OD.
The same measure, in the same setting: then B8, with 0.019 OD.
As to B9, the “Mean normalized OD” value was determined as 0.003 OD.
Take B10: the “Mean normalized OD” value stood at 0.004 OD.
Regarding B11, the “Mean normalized OD” value worked out at 0.011 OD.
Still for that read-out and setting: for B12 the value was 0.02 OD.
In the case of B13, the “Mean normalized OD” value was found to be 0.048 OD.
For B14, the “Mean normalized OD” value is -0.041 OD.
The same measure, in the same setting: for B15 the value was 0.001 OD; for B16, 0.002 OD; for B17, 0.019 OD.
Same read-out and setting: for B18 the value was 0.038 OD; for B19, 0 OD.
For the molecule B20, the “Mean normalized OD” value came out at 0.017 OD.
On the same count and under the same terms, then B21, with 0.006 OD; and B22, with 0.039 OD.
The same measure, in the same setting: for B23 the value was 0.026 OD.
The same measure, in the same setting: for B24 the value was 0.004 OD.

A further test has as its target T3, human recombinant soluble ACE2 (human, UniProt Q9BYF1 18-740).
T3 construct: also called hrsACE2
Briefly: ELISA screen.
For B1, the “Mean normalized OD” value was -0.066 OD.
Same read-out and setting: for B2 the value was -0.001 OD.
Consider B3, for which the “Mean normalized OD” value is -0.073 OD.
With B4, the “Mean normalized OD” value is -0.003 OD.
For the molecule B5, the “Mean normalized OD” value is -0.004 OD.
As for B6, the “Mean normalized OD” value is -0.004 OD.
For the molecule B7, the “Mean normalized OD” value is -0.001 OD.
With B8, the “Mean normalized OD” value was -0.005 OD.
Still for that read-out and setting: for B9 the value was -0.009 OD.
With B10, the “Mean normalized OD” value was -0.009 OD.
The same measure, in the same setting: for B11 the value was -0.019 OD; for B12, -0.008 OD; for B13, -0.016 OD.
With B14, the “Mean normalized OD” value is -0.23 OD.
Take B15: the “Mean normalized OD” value was -0.002 OD.
The same measure, in the same setting: then B16, with -0.005 OD; and B17, with -0.021 OD.
The same measure, in the same setting: then B18, with -0.064 OD; and B19, with -0.01 OD.
Same read-out and setting: for B20 the value was -0.014 OD; for B21, -0.019 OD.
With B22, the “Mean normalized OD” value was -0.132 OD.
The same measure, in the same setting: then B23, with -0.042 OD.
In the case of B24, the “Mean normalized OD” value is -0.014 OD.
